# Side chains are listed from the residue outwards. * marks the point of attachment. Biotin = O=C1N[C@H]2[C@H](CS[C@H]2CCCCC(=O)*)N1; cysteamine‑PEG/Lys copolymer = not defined here; PEG/Lys copolymer = not defined here
# What was measured:
# [1] = Release of peptide from PEG/Lys carrier by reductive cleavage of the disulfide linkage with glutathione; type: physicochemical; conditions: for half-time of release of peptide from carrier: 3 mM glutathione in PBS (pH 7.4), room temperature, cysteamine thiol linker
# Procedure: The disulfide linked conjugate, PEG-cysteamine-N-acetyl-Phe-Arg-Arg-Arg-Cys-NH2 (SEQ ID NO:9) was added to a solution of reduced glutathione (3 mM in PBS) to a final peptide concentration of 0.3 mM, and then incubated under N2 at room temperature. A sample was taken at each time point, acidified by adding an aliquot of 5% TFA and applied to a G-75 column in 0.1% TFA (7 ml bed volume) to separate PEG-conjugated peptide from free peptide. Appropriate fractions in the high-molecular-weight region were pooled, and the extent of peptide derivatization at each time point was determined by amino acid analysis. For measuring the release of radiolabeled peptide, each time point aliquot was acidified to pH 3.5 with sulfuric acid. The PEG-conjugated peptide and the free peptide were then separated using ultrafiltration on “CENTRICON-10”. To ensure complete separation, the retentate was diluted and ultrafiltered two more times. Radioactivity in the retentate and combined filtrate was quantitated by scintillation counting.
# Release of the peptide, N-acetyl-Phe-Arg-Arg-Arg-Cys-NH2 (SEQ ID NO:9), by reductive cleavage of its disulfide linkage to a carrier of the present invention comprising a PEG/Lys copolymer was evaluated using 3 mM glutathione in PBS (pH 7.4) at room temperature. At each time point, an aliquot was withdrawn and acidified to halt the disulfide interchange reaction. Released peptide was removed from PEG/Lys-peptide conjugate by gel filtration chromatography, and the ratio of PEG (i.e. Lys residues) to peptide (i.e. Phe or Arg residues) was determined by amino acid analysis.
# Release kinetics were also studied using the disulfide-linked radiolabeled peptides, N-acetyl-Arg-Lys-Lys-Arg-Arg-Gln-Arg-Arg-Arg-Cys-NH2 (SEQ ID NO:10) and N-acetyl-Arg-Lys-Lys-Arg-Arg-Gln-Arg-Arg-Arg-Lys-(biotin)-Cys-NH2 (SEQ ID NO:3). Released peptide was removed from PEG/Lys-peptide conjugate by ultrafiltration.
# Analysis of the release rate of the radiolabeled peptide, N-acetyl-Arg-Lys-Lys-Arg-Arg-Gln-Arg-Arg-Arg-Lys-(biotin)-Cys-NH2 (SEQ ID NO:3) gave a half-time of about 40 min in the presence of 30 mM glutathione (FIG. 6). Since the disulfide cleavage rate is proportional to glutathione concentration^8, the sterically hindered linker has a release rate about 100 times slower than does a carrier of the present invention in which the thiol compound is cysteamine. Thus, the release rate can be readily controlled by selection of a thiol compound having functional groups, wherein the thiol compound is conjugated to the polymer, and conjugated via a disulfide bond to a therapeutic agent.
# [2] = test system: Tat binding to TAR RNA; experiment: TAR-CAT / Tat plasmid transfected Jurkat cells, CAT protein by immunoassay; type: cell-based, HIV-1; conditions: inhibitor added at 18 h, CAT measured at 42 h
# Procedure: FIG. 7 is a graph of the comparison of the inhibition of protein expression in a Jurkat cell line transfected with a TAR-CAT (TAR-Chloramphenicol Acetyl Transferase) plasmid and a Tat-protein plasmid. In this experiment, one group of cells was administered a Tat inhibitory biotinylated polypeptide derivative having a sequence of N-acetyl-Arg-Lys-Lys-Arg-Arg-Gln-Arg-Arg-Arg-Lys-(biotin)-Cys-NH2 (SEQ ID NO:3), and another group of cells was administered the same Tat inhibitory biotinylated peptide derivative conjugated to a carrier of the present invention via a disulfide bond between the sulfur atom of the thiol group of the thiol compound, and the thiol group of the Cys residue located between biotin and the amino group of the Tat inhibitory biotinylated polypeptide derivative of SEQ ID NO:3. […] Cysteamine was the thiol compound conjugated to the polymer. Conjugation of cysteamine to the polymer involved the carboxylic acid group of the lysine incorporated into the copolymer, which was available for reaction. If the polypeptide was successful in inhibiting Tat binding to TAR, CAT […]. […]
# Initially, a Jurkat cell line was stably transfected with a TAR-CAT plasmid. […] At t=42 hours, the cells were harvested and CAT protein was measured by immunoassay. […]
Substance,"half-time of release of radiolabeled peptide from carrier ([1]; 30 mM glutathione in PBS, sterically hindered linker 1-amino-2-methyl-2-propanethiol)","release rate, times slower than carrier with cysteamine ([1]; cleavage rate taken as proportional to glutathione concentration)",half-time of release of peptide from carrier [1],increase in potency relative to biotinylated Tat-peptide inhibitor administered alone [2]
"PEG-1-amino-2-methyl-2-propanethiol-SEQ ID NO:3: radiolabeled SEQ ID NO:3 peptide disulfide-linked to PEG/Lys derivative of sterically hindered 1-amino-2-methyl-2-propanethiol (Ac-RKKRRQRRRK(Biotin)C-NH2; not fully specified (residue 11); printed as N-acetyl-Arg-Lys-Lys-Arg-Arg-Gln-Arg-Arg-Arg-Lys-(biotin)-Cys-NH2; also: acetyl group tritium-labelled, Cys11 disulfide-linked to PEG/Lys carrier bearing 1-amino-2-methyl-2-propanethiol)",about 40 min,about 100 times,,
"PEG-cysteamine-N-acetyl-Phe-Arg-Arg-Arg-Cys-NH2 (Ac-FRRRC(cysteamine‑PEG/Lys copolymer)-NH2; reading uncertain; also: Cys disulfide-linked to PEG/Lys cysteamine carrier, printed as PEG-cysteamine-N-acetyl-Phe-Arg-Arg-Arg-Cys-NH2) [PEG-cysteamine-SEQ ID NO:9]",,,about 3 minutes,
"PEG-cysteamine-SEQ ID NO:3: SEQ ID NO:3 peptide disulfide-linked via its Cys to the cysteamine-PEG carrier (PEG/lysine copolymer, about 27,000 D) (Ac-RKKRRQRRRKC([cysteamine (disulfide)-PEG/Lys copolymer])-NH2; reading uncertain; also: Lys(biotin), position not given here)",,,about 3 minutes,about 5 fold
PEG-cysteamine-SEQ ID NO:10: radiolabeled SEQ ID NO:10 peptide disulfide-linked to PEG/Lys copolymer through cysteamine (Ac-RKKRRQRRRC-NH2; not fully specified (residue 10); printed as N-acetyl-Arg-Lys-Lys-Arg-Arg-Gln-Arg-Arg-Arg-Cys-NH2; also: radiolabel),,,about 3 minutes,
